Assay: soluble on expression in E. coli; label from the status in PepcDB or PDB records

Sequence	soluble on expression in E. coli
MEVEIEDIDEVATLTETDIVEIQTKLIEDLQEMVVKDKEKHEKLLKLGEHVLDEQTRLRTRLSEEFGDFLNRSKRSLTRNFETADGNVYSFEKNLRELLHLYITVHNRVKQDEKEVAKQDEFLNQIDRNEMELKDLRDNIRSLRSELTVDVGPVSSVTSKTSGIEANFIVKPYKPLETELATQIVRVNRELEILKMQLPNCDHFPNLMNPVQKLGEKVTGMVMKDLPAKKLQDFLDTLPPMKRD	not soluble
MGKIIAIANQKGGVGKTTTSVNLGAGLAQVGKKVLLVDIDAQGNATTGVGIEKSELDQCIYNVLVEDADVQGVIQKTATENLDVLPATIQLAGAEIELVPTISREVRLQRALQPVRDEYDYIIIDCPPSLGLLTINALTAADSVIIPVQCEYYALEGLSQLLNTVRLVQKHLNKNLAIQGVLLTMLDARTNLGIQVIDEVKKYFRDKVYRSIIPRNVRLSEAPSHGKPIMQYDAKSRGAEVYIDLAEEVIAGG	not soluble
MESLTLQPIARVDGTINLPGSKSVSNRALLLAALAHGKTVLTNLLDSDDVRHMLNALTALGVSYTLSADRTRCEIIGNGGPLHAEGALELFLGNAGIAMRSLAAALCLGSNDIVLTGEPRMKERPIGHLVDALRLGGAKITYLEQENYPPLRLQGGFTGGNVDVDGSVSSQFLTALLMTAPLAPEDTVIRIKGDLVSKPYIDITLNLMKTFGVEIENQHYQQFVVKGGQSYQSPGTYLVEGDASSASYFLAAAAIKGGTVKVTGIGRNSMQGDIRFADVLEKMGATICWGDDYISCTRGELNAIDMDMNHIPDAAMTIATAALFAKGTTTLRNIYNWRVKETDRLFAMATELRKVGAEVEEGHDYIRITPPEKLNFAEIATYNDHRMAMCFSLVALSDTPVTILDPKCTAKTFPDYFEQLARISQAA	soluble
MGSDKIHHHHHHMNGLDVLLSNNQNHHFYGVTIGVVTNNKDPKKLGRVKVKFPWLSSEEESYWARVVTLMAGNDRGIYFLPEVDDEVLVAFEQGDMNFPYILGALWNGKDKPPITNEDGKNNQRVIKSRSGHMIVLDDTEENEQIIIQDKTGKNKIVINSKENKMNIQVEKDLTIETKGKIILKSSDDDISIDCKNLQIKTQQNYQLEVGANCTIKAKSKYKLEAQSGLGIKCAAGVKINDGSLEVM	not soluble
MSLGETAGKLPRKPTLGPETAGATLVIPGETDRLASLYARAQAEGGKVVLWAGGDAPNQMDWLKTAFESRFPGVTLDVTVDLSKFHDLRIDQELAAGTLTPDVAMLQTTFDFDKWKARDVLLRYKPVGFARQKKGYADPDGAYVTAYNNAFVPTYASVRLPAERYPTRFADYLKPAFKGKLVLTYPHDDDAVLYVYDKLERRYGSGFLRALAAQKPNFLRGTAAPAASVGADSIGSLGNLTGYATDSDTPAGYFIPTDEPFIVWNQRAAIFKAARHPATAKLLLSYLGSAEFQSSYGGWRARADVGEAPGLPPLESLKNVDVHDFTRWMTDRQRVASLRRHMAEIFGPVRGESPLRDPALMSLLGLTANDIVALPEPDLPIYEGHHHHHH	soluble
MILRRPSQADKEAILDMMGEFEREKSVHDGGFWNADNFIYEEWLEENLQSEAGLNIPENWVPAIQLVSFNESGHALGFLHLRLRLNGRLLEKGGHIGYSIRPSERGKGYAKESLRQGLQVAKEKNIQRALVTCSTENPASRAVILANGGQLEDICNETERYWIDLE	not soluble
MLAIFHEAFAHPPEELNSPASEKCSKQPKLPEETLNDFLLRYPLNTFSMSFGQAAVLAYVRPSASFSIHQRLFCGFDDIYCLFFGSLNNLCQLNKQYGLTKTTNEAMFVIEAYRTLRDRGPYPADQVVKDLDGSFSFVVYDSKAGSVFTALVLIHKISPRLLELNFNGSDGGVKLYWGIAADGSVVISDDLDVIKEGCAKSFAPFPTGCMFHSEGGLMSFEHPMNKIKAMPRVDSEGVLCGANFKVDVYNRVNSIPRRGSEANWSL	soluble
MAHHHHHHMNKEHILFDSFPLTFLSDEVDCSNFEDEQERTYRERIAQMTEELKSLRMEITEKHSIRSMLEEKVAMLQNEEQTKQNNLKYVLNFCDKQMYERELGNFHNHLEQLRKQIQNSNCKIKLLIEKEFKVRKQLQLRYMKLYDLLNERVRYILGDYVKHRKCACAIFAYRQEGQR	not soluble
MGSDKIHHHHHHMTAIQHIERLARGRSEQAVAVIKNVQQMSNIPMHEMQLALKQLLNCGRIALHFHPDRIDSRGMTVAEGLLRDGQYRSQFETHISNGQLSPELGGPRDHWENQLFGDVYKGTKSRPKYGALDLGMWQDGPAPRFGSCYLLTHASVMARSTFCYLDSYRNPKEKGTLSCFDDVLAALLTESFERHYALGKSDFKPLNVIHYLGHQLNASLLSRFERPLSNNLDHYIEAQIHGDVSLDEDIAMLVADPSFKGTDIGASLSKICDRYDIELQYHDGFSLHTAQIPSDFRGPTMPSQANRIAIEDRVDAYAIGVAARDLYHSPQHWRDRGNRAQVAHELKLLWHVLVKYGAVQ	not soluble
MGSDKIHHHHHHMRNITVPSNYFHTRERLGALGGIVQHHTALYRSVAVYEPTVVIVRRGCKKLRWAGRELRIAAGEAVGLAGGQTLDVINIPDSDGLYQAQWIAFEQETVERFAAQYGTAQAVCDAVKLPHPGRMGAAFDYAAAVLADEEVPHNAAEAALCGVLAWLQHDGIGFAVYGGVNLMRQIRKLITADMAADWSSAMLAQRLNCSEAALRRRLARQDTNFRTLLTDVRMMRALTLLQVTQWSVAQIAGAVGYDCPSRFSARFKELFGCVPSVVRSEAEPAAYRRTGQVSVGVRP	not soluble
MNDLCVDLGYKSLNKFGEQLCGDMIQVVKDDDTTILVLADGLGSGVKANILSTLTSKIISTMIAAHMGIEECVNTIMSTLPVCKVRGIAYSTFTIIKITNNTYAEIIQYDNPLVILLRNGKKYDYPTQTKIISGKKIVESKIRLNCDDVFVVMSDGAIYAGVGQTLNYGWQRENIIEFIESHYDKSLSANALTSLLIDTCNNLYANMPGDDTTIAAIKIRKRQVVNLMFGPPQNPEDVHNMMSLFFAKQGRHIVCGGTTSTLAAKFLGKELETTIDYIDPRIPPIARIEGVDLVTEGVLTISRVLEYAKDYIGKNILYNEWHSKNDGASIIARMLFEEATDINFYVGKAINPAHQNPNLPIGFNIKMQLVEELSKILKQMGKTINLSYF	not soluble
MFRKESTILVLGSKVRGAQPGHVLRWRLEHALELSRHTTGPIVVSGKGEAYVMDDWLIRHGVDYRRLIVEPEATSTNENIENAHALLPDTHEWLVVTSDFHKLRTLAWARHLGVPIRVSSAVTKPPFRVNNFVRECFALPHSLLRIAWRRLLAAAALEHHHHHH	not soluble
MGSDKIHHHHHHAQETIPDVEVSTMDMWVKETRSVSEYLNMPVLHFKDEQVYSETLRQLKNMTENERFTYFQQLGFEGAYILWEQADRELDKIFDMESDDSHLIQEMINTYKDKYSDIFSFNTVDLFDVTPYFTFTDNDLSLLGNIKGYVVIGNSLRGPKYDYPTYDLDEVVSATRAAEPTPIEPGFKGFKDASLTIKNGKYKSTMTIGRIVNGNSFAVEFKTKKKQLFWKKSVKAGYSAMLTMKSSKFNYKNTVFCPYGKEVSILNLPIERVGNVFDAVVENFKSSRGDAKGNQSFHNIRVI	not soluble
MAKYQTIEAAVRSEFGKGSARRARVAGQIPAVVYGADVESNLHVTIDHRTFAALVRQEGVNAVLELDIEGQKQLTMIKHIDQNVLTFHIDHLDLLAI	not soluble
MSENKNVQDTHISEQMKALHGALIRVVSALNRPRNDEKLIAEAGIQLDRALFSILISIERLGPIGVVELAERAGRDYTTVSRQVAKLEKLGLIIRQHNAIDRRIREAVISRTGKAMTERIDAAREQMGNVVFKDWPQDELDVFVRLMQKFADAMDSDASMPE	not soluble
MGLKPCDYPDIKHGGLYHENMRRPYFPVAVGKYYSYYCDEHFETPSGSYWDHIHCTQDGWSPAVPCLRKCYFPYLENGYNQNHGRKFVQGKSIDVACHPGYALPKAQTTVTCMENGWSPTPRCIRVKTCSKSSIDIENGFISESQYTYALKEKAKYQCKLGYVTADGETSGSITCGKDGWSAQPTCI	soluble
MTCEVLITEFVAHPSDITDAYARYQQRIQDAPLHIVCSSPRPLPSKGSAYAQWSLRCESAYAQKSHPELMQCYELRSLVTYEETPDPDDSLIEKFFFEDCAEPTVYSASVNRLDIELGAVDTRCTDELCIVTPVFLAHSEHAEVLQSLYEVLVSNADPVAYAASIAECDDISQANLIGLLWVRDAQRTMSNVGDQIYAMGKTAWTGWILVEASKQEELQLQLSELIDATNAVAYLTATPW	soluble
MAKINLTPKKIYEQEFKTSIRGYDKTEVDEFLDDVIKDYTVYIALVKELQEENAKLKAKATSAPASRPAYASATSEPSHATTNIASASNYDILKRISRLEKEVFGKQIVE	not soluble
MKEMTGLHSLVSIENFIKQHKFSFIYISRPGCTVCHAVLPQLRIVLDQFPNIKLGHINADDVAEVAGRFSVFTVPVLLLFIDGTEFLREARFVHFEQLEQKLKRVYRLYEGE	not soluble
MNRSLANVILGGYGTTSTAGGKPMEISGTHTEINLDNAIDMIREANSIIITPGYGLCAAKAQYPIADLVKMLTEQGKKVRFGIHPVAGRMPGQLNVLLAEAGVPYDIVLEMDEINHDFPDTDLVLVIGANDTVNSAAQEDPNSIIAGMPVLEVWKSKQVIVMKRSLGVGYAAVDNPIFYKPNTAMLLGDAKKTCDALQAKVRESYQK	soluble
MRVLATAADLEKLINENKGRLIVVDFFAQWCGPCRNIAPKVEALAKEIPEVEFAKVDVDQNEEAAAKYSVTAMPTFVFIKDGKEVDRFSGANETKLRETITRHK	soluble
MEKTSNTSKPLSRSEINKIIAVATGIKEKKIKEIFKYLNTLLLNELVSRSVCILPENLGKLRITIRNARYQKDMQTGEIRHIPPKPLVRYSPSKTIKETAAKVRWKYAD	soluble
MIYLFTGNMGTGKTSRVVSMILNNEDGLFKMKLEDGTEVDRPLYFCHIDGLDKRQFKAHELTEEQIMSAPLRDVIPEGAVLIVDEAHYTYPVRAAGRPVPPYIQELTELRHHGHTVILMTQHPSQLDIFVRNLVSKHVHLERKAIGMKQYYWYKCVTSLDNPAGVSGVEVASWKPPKEAFKYYKSASQHQ	not soluble
MGSDKIHHHHHHMLLVFASCGVNKSTEDSKKTNETKVEQIATLSAGTPVQSLDPATAVDQTSVTLLANVMEGLYRLDEKNQPQPAIAAGQPKISNGGKTYTIVIRDGAKWADGTDITADDFVTAWQRVLDPKTASPNVELFAAIKNAKEISIGKQQKETLGVKSKGNKTIEIELEEPTPYFTDLLALTAYFPVQQNAVKEYGKEYGTTKENIVTNGAFTLTDLNGVGISDKWTIAKNPKYWDKKHVAMEKIKFQVVKDINTGINLYNDGQLDDAPVAGEYSKQLENNKDFIRELSATTMFLEVNQRNKKSITSNKHARQAINFAIDREAISNKILTNGSIPAKGVVPSKLVYNPKTGKDFTNSSLVFLDKSKAKDSWEKAKKELKGTDLSIDIMVNEEDLSKKLGEYLQNELQDTLDGLKVSVTAVPATLQTERLNSGNFMIALSGWQADFADPVSFLANFESKSSLNHGGYANEEYDKLLKNNSSKRLQELKDAEKLILEDAGVIPLLQIGNAKLRNQKISEMKVHSIGAKYDYKTMEIK	not soluble
MNILYTVENSIYVNITNTCPCSCVFCIRNEKDEVANSGSLWLEHEPSVDEVKEAFNKYNLDDYDEIVFCGYGEPLMRINELIDVAKFIKEKSSIKIRINTNGLSDLIHNKKTAILLKDVIDAVSISLNAPNKEAYNRVTQPKFGEKSFDYMLDFAKDCKKYIKEVAFSVVDEISPEEIEESKQLAKKLDIPLRVRHKN	not soluble

Source: the DeepSol protein solubility set
